Patent US20170307631A1, “METHODS, SYSTEMS AND PRODUCTS FOR PREDICTING RESPONSE OF TUMOR CELLS TO A THERAPEUTIC AGENT AND TREATING A PATIENT ACCORDING TO THE PREDICTED RESPONSE” (Merrimack Pharmaceuticals, Inc., priority 2008, published 2017)

How the values were obtained:
pErbB1 in NCI-ADRr cells = experiment: ErbB1 phosphorylation dose response curves for ErbB ligands (ELISA); assay type: cell-based, human
Method: (§1) For stimulation of the cells, the cells are seeded in […] at 35,000 cells per well in 96 well tissue culture plates and incubated overnight in a humidified atmosphere of 5% CO2, 95% air and 37 degrees Celsius. Cells are then switched to serum free media: RPMI-1640 media (Gibco) supplemented with, 2 mM L-glutamine (Gibco) and units/mL Pen-Strep (Gibco). Starved cells are incubated in a humidified atmosphere of 5% CO2, 95% air and 37 degrees Celsius for 20-24 hours prior to stimulation.
(§2) Levels of protein phosphorylation in the stimulated cells are measured by ELISA. Capture antibodies against ErbB1 (R&D Systems, AF231), ErbB2 (R&D Systems, MAB1129), ErbB3 (R&D Systems, MAB3481) and AKT (Upstate, 05-591MG) are incubated in 384 well black flat-bottom polystyrene high-binding plates (Corning, Catalog #3708) overnight at room temperature. The ELISA plates are blocked with 2% bovine serum albumin (BSA) and phosphate buffered saline (PBS) for one hour then incubated with lysates diluted in 2% BSA, 0.1% Tween-20 and PBS for two hours at room temp. In between each incubation, the plates are washed three times with 0.05% Tween-20 in PBS. ELISAs for measuring phospho-ErbB1, -ErbB2 and -ErbB3 are incubated with phospho-tyrosine horseradish peroxidase (HRP) linked monoclonal antibody (R&D Systems, HAM1676) for two hours. ELISAs measuring phospho-AKT are incubated with primary serine 473 specific anti-phospho AKT mouse monoclonal antibody (Cell Signaling Technologies, Catalog #5102) for 2 hours, then incubated with Streptavidin-HRP (R&D Systems, Catalog # DY998,) for 30 minutes. All ELISAs are visualized with SuperSignal ELISA Pico Chemiluminescent Substrate (Pierce, Catalog #37069) and luminescent signal is measured using a luminometer.

pErbB2 in NCI-ADRr cells = experiment: ErbB2 phosphorylation dose response curves for ErbB ligands (ELISA); assay type: cell-based, human
Method: as §1, §2

pErbB3 in NCI-ADRr cells = experiment: ErbB3 phosphorylation dose response curves for ErbB ligands (ELISA); assay type: cell-based, human
Method: as §1, §2

pAKT in NCI-ADRr cells = experiment: AKT phosphorylation dose response curves for ErbB ligands (ELISA); assay type: cell-based, human
Method: as §1, §2

ErbB3 (E3) = ErbB3 (E3) (Homo sapiens, UniProt P21860); experiment: ErbB computational model: HRG ligand binding rate parameters
Text: (§3) The ErbB receptor signaling network model consists of three receptors (ErbB1, ErbB2, ErbB3), a receptor phosphatase, phosphatidylinositol 3-kinase (PI3K, which binds the receptors) and components of the PI3K-AKT cascade (phosphatidylinositol bisphosphate, PIP2, phosphoinositide-dependent protein kinase, PDK1, PTEN deleted from chromosome 10, PTEN, serine, threonine protein kinase also known as protein kinase B, AKT, Protein phosphatase 2A, PP2A) (see Table 8 below).
(§4) Many of the reaction rate parameters are unknown in the cell system we studied and therefore had to be estimated (see Table 10 below). To avoid biasing the starting point, all parameters were set to default values (Aldridge, B. B. et al. (2006) Nat. Cell. Biol. 8:1195-1203). The number of parameters estimated was limited by performing the estimation in two stages: first the model was calibrated against the experimentally observed ErbB receptor phosphorylation data; second, the parameters sensitive to AKT phosphorylation were optimized against the experimental data. Estimated values were only accepted if the parameters were constrained under multiple parameter runs using a genetic algorithm with a population size of 50 and 25 generations (Mathworks, Mass.). […] The normalized sensitivities of each species were integrated over the two hour stimulation, and parameters with normalized, integrated sensitivities greater than an arbitrary threshold of 1000 are listed in Table 11 below. As mentioned above, ErbB4 phosphorylation was not included into the parameter estimation because the cell line studied had barely detectable ErbB4 (see Table 3 below). ErbB4 reactions are parameterized according to ErbB3 reactions.

ErbB1 (E1) = ErbB1 (E1) (Homo sapiens, UniProt P00533); experiment: ErbB computational model: BTC ligand binding rate parameters
Text: as §3, §4

[1] = tested on: MALME3M xenograft tumor model; experiment: Xenograft efficacy study with Ab #6, MALME3M model; assay type: in vivo, mouse
Text: (§5) In this example, four xenograft tumor models were used to identify tumor cell lines that responded to treatment with the anti-ErbB3 antibody Ab #6. The four xenograft tumor models studied represent different indications: MALME3M (melanoma cancer line; ATCC No. HTB-64), ADRr (ovarian cancer cell line; NCI-60, cosmic sample ID No. 905987), ACHN (renal cancer cell line; ATCC No. CRL-1611) and DU145 (prostate cancer cell line; ATCC No. HTB-81).
(§6) In the xenograft tumor models, mice (nu/nu mice: 3-4 week old female mice, T-cell deficient; outbred; Albino background; from Charles River Labs, Wilmington, Mass.) are implanted in the right flank with 3.5×10^6-3×10^8 cells/mouse (depending on cell line) in 200 μl via subcutaneous injection. Mice are monitored for initial tumor growth. Tumor cells are allowed to grow for several days until the tumor volume is approximately 200 mm^3. The tumor volume is calculated as V=(π/6 (L×W^2). The mice are treated with the Ab #6 antibody at a dosage of 600 μg/injection every 3 days (qd3). Control mice are treated with phosphate buffered saline (PBS).
(§7) Tumor volume is measured for 60-80 days.
(§8) As a measure of responsiveness of the tumor to Ab #6, the exponential growth rate is determined, which described the experimental data best. The following formula is used to describe the exponential growth. […]

[2] = tested on: DU145 xenograft tumor model; experiment: Xenograft efficacy study with Ab #6, DU145 model; assay type: in vivo, mouse
Text: as §5, §6, §7, §8

[3] = tested on: ADRr xenograft tumor model; experiment: Xenograft efficacy study with Ab #6, ADRr model; assay type: in vivo, mouse
Text: as §5, §6, §7, §8

[4] = tested on: ACHN xenograft tumor model; experiment: Xenograft efficacy study with Ab #6, ACHN model; assay type: in vivo, mouse
Text: as §5, §6, §7, §8

[5] = tested on: IGROV1 xenograft tumor model; experiment: Xenograft study with Ab #6 (predicted set), IGROV1; assay type: in vivo, mouse
Method: as §6
(§9) To test these model predictions, three additional in vivo xenograft studies were performed. The IGROV1, OVCAR8 and SKOV3 cell lines were used in xenograft studies conducted as described in Example 1, wherein mice were treated with 600 μg of Ab #6 every 3 days or with PBS as a control. The xenograft responses, as determined by changes in tumor volume (in mm^3) over time, are summarized in the graphs of FIGS. 9A-9C. Again, the Growth Rate Reduction (GRR) value for each cell line was calculated using the following formula:
(§10) Growth Rate Reduction=1−(Ab #6 Growth Rate)/(PBS Growth Rate)

[6] = tested on: OVCAR8 xenograft tumor model; experiment: Xenograft study with Ab #6 (predicted set), OVCAR8; assay type: in vivo, mouse
Method: as §6, §9, §10

[7] = tested on: SKOV3 xenograft tumor model; experiment: Xenograft study with Ab #6 (predicted set), SKOV3; assay type: in vivo, mouse
Method: as §6, §9, §10

ErbB3 = ErbB3 (Homo sapiens, UniProt P21860); experiment: Ab #6 rate constants measured by Kinexa (inhibitor parameter values); assay type: binding
[8] = estimated using known Kds and initial dose response curves
[9] = Ab #6 600 μg/injection every 3 days vs PBS, negative GRR set to zero
[10] = Ab #6 600 μg/injection every 3 days vs PBS
[11] = 600 μg of Ab #6 every 3 days vs PBS

AR: ErbB ligand amphiregulin
EC50 (pErbB1 in NCI-ADRr cells): 37 nM
pErbB1 % stimulation at 5 min relative to maximum (pErbB1 in NCI-ADRr cells): 95.0%
pErbB2 % stimulation at 5 min relative to maximum (pErbB2 in NCI-ADRr cells): 54.0%
EC50 (pErbB3 in NCI-ADRr cells): 380 nM
pErbB3 % stimulation at 5 min relative to maximum (pErbB3 in NCI-ADRr cells): 17.0%
pAKT % stimulation at 5 min relative to maximum (pAKT in NCI-ADRr cells): 28.0%

HRG1-β: ErbB ligand heregulin, binds to ErbB3 and ErbB4
pErbB1 % stimulation at 5 min relative to maximum (pErbB1 in NCI-ADRr cells): 0.0%
EC50 (pErbB2 in NCI-ADRr cells): 7 nM
pErbB2 % stimulation at 5 min relative to maximum (pErbB2 in NCI-ADRr cells): 43.0%
EC50 (pErbB3 in NCI-ADRr cells): 9.9 nM
pErbB3 % stimulation at 5 min relative to maximum (pErbB3 in NCI-ADRr cells): 100.0%
EC50 (pAKT in NCI-ADRr cells): 1.9 nM
pAKT % stimulation at 5 min relative to maximum (pAKT in NCI-ADRr cells): 100.0%
forward binding rate (ErbB3 (E3); [8]): ~100000 M⁻¹ s⁻¹
kf2: HRG binding to E3:E2 dimers (ErbB3 (E3); model parameter): 5.00 × 10^−11 molecules−1 sec−1
kr1: HRG dissociation from E3 (ErbB3 (E3); model parameter): 0.001 s⁻¹
kr2: HRG dissociation from E3:E2 dimers (ErbB3 (E3); model parameter): 0.001 s⁻¹
kf127: HRG binding in the endosome (ErbB3 (E3); model parameter, endosome): 3.8 molecules−1 sec−1
kf1: HRG binding to E3 or E4 (ErbB3 (E3); model parameter, unit conversion from 1e5 M−1s−1/(Vmedia*Av/Num_cells)): 5.00 × 10^−11 molecules−1 sec−1

BTC: ErbB ligand betacellulin, binds primarily to ErbB1
EC50 (pErbB1 in NCI-ADRr cells): 5.7 nM
EC50 (pErbB3 in NCI-ADRr cells): 100 nM
forward binding rate (ErbB1 (E1); [8]): ~100000 M⁻¹ s⁻¹
kf3: BTC binding to E1 (ErbB1 (E1); model parameter): 5.00 × 10^−11 molecules−1 sec−1
kf4: BTC binding to E1 homodimers (ErbB1 (E1); model parameter): 5.00 × 10^−11 molecules−1 sec−1
kf5: BTC binding to E1 heterodimers (ErbB1 (E1); model parameter): 5.00 × 10^−11 molecules−1 sec−1
kr3: BTC dissociation from E1 (ErbB1 (E1); model parameter): 0.001 s⁻¹
kf129: BTC binding in the endosome (ErbB1 (E1); model parameter, endosome): 3.8 molecules−1 sec−1

Epiregulin: ErbB ligand epiregulin
pErbB1 % stimulation at 5 min relative to maximum (pErbB1 in NCI-ADRr cells): 9.0%
pErbB2 % stimulation at 5 min relative to maximum (pErbB2 in NCI-ADRr cells): 18.0%
pAKT % stimulation at 5 min relative to maximum (pAKT in NCI-ADRr cells): 11.0%

HB-EGF: ErbB ligand, heparin-binding epidermal growth factor
EC50 (pErbB1 in NCI-ADRr cells): 21 nM
pErbB1 % stimulation at 5 min relative to maximum (pErbB1 in NCI-ADRr cells): 87.0%
EC50 (pErbB2 in NCI-ADRr cells): 230 nM
pErbB2 % stimulation at 5 min relative to maximum (pErbB2 in NCI-ADRr cells): 94.0%
pErbB3 % stimulation at 5 min relative to maximum (pErbB3 in NCI-ADRr cells): 32.0%
pAKT % stimulation at 5 min relative to maximum (pAKT in NCI-ADRr cells): 20.0%

TGFα: ErbB ligand, transforming growth factor alpha
EC50 (pErbB1 in NCI-ADRr cells): 30 nM

B1: Ab #6: anti-ErbB3 antibody described in WO 2008/100624, VH and VL sequences of SEQ ID NOs: 1 and 2 (antibody, V domains shown)
VH: EVQLLESGGGLVQPGGSLRLSCAASGFTFSHYVMAWVRQAPGKGLEWVSSISSSGGWTLYADSVKGRFTISRDNSKNTLYLQMNSLRAEDTAVYYCTRGLKMATIFDYWGQGTLVTVSS
VL: QSALTQPASVSGSPGQSITISCTGTSSDVGSYNVVSWYQQHPGKAPKLIIYEVSQRPSGVSNRFSGSKSGNTASLTISGLQTEDEADYYCCSYAGSSIFVIFGGGTKVTVL
GRR [%] (Tumor Growth Rate Reduction) [1, 9]: 0%
effect of antibody treatment on tumor growth ([1]; compared to PBS control): did not inhibit tumor growth
GRR [%] (Tumor Growth Rate Reduction) [2, 10]: 72.6%
effect of antibody treatment on tumor growth ([2]; compared to PBS control): inhibited tumor growth
GRR [%] (Tumor Growth Rate Reduction) [3, 9]: 0%
effect of antibody treatment on tumor growth ([3]; compared to PBS control): did not inhibit tumor growth
GRR [%] (Tumor Growth Rate Reduction) [4, 10]: 28.0%
effect of antibody treatment on tumor growth ([4]; compared to PBS control): inhibited tumor growth
experimentally observed responsiveness based on GRR value [5]: non-responder
GRR [%] (Tumor Growth Rate Reduction) [5, 11]: 6.3%
experimentally observed responsiveness based on GRR value [6]: responders
GRR [%] (Tumor Growth Rate Reduction) [6, 11]: 91.4%
experimentally observed responsiveness based on GRR value [7]: responders
GRR [%] (Tumor Growth Rate Reduction) [7, 11]: 19.6%
Ab #6 on-rate for binding to ErbB3 before unit conversion (ErbB3): calculated as 1.43e5 M^−1s^−1/(Vmedia*Av/Num_cells).
kf Ab #6 _2: Ab #6 inhibitor binding to a second ErbB3 (ErbB3; avidity due to volume reduction (Vmedia/Numcells)/Vshell): 4.96E−05 molecules^−1 sec^−1
kf Ab #6 _1: Ab #6 inhibitor binding to ErbB3 (ErbB3; unit conversion of on-rate/(Vmedia*Av/Num_cells), Num_cells = 30,000 per well): 7.15E−11 molecules^−1 sec^−1

B2: Epigen: ErbB ligand epigen (protein, UniProt Q6UW88 23-154, looked up)
Epigen: AAVTVTPPITAQQGNWTVNKTEADNIEGPIALKFSHLCLEDHNSYCINGACAFHHELEKAICRCFTGYTGERCEHLTLTSYAVDSYEKYIAIGIGVGLLLSGFLVIFYCYIRKRCLKLKSPYNVCSGERRPL
pErbB1 % stimulation at 5 min relative to maximum (pErbB1 in NCI-ADRr cells): 12.0%
pErbB2 % stimulation at 5 min relative to maximum (pErbB2 in NCI-ADRr cells): 25.0%
pErbB3 % stimulation at 5 min relative to maximum (pErbB3 in NCI-ADRr cells): 3.0%
pAKT % stimulation at 5 min relative to maximum (pAKT in NCI-ADRr cells): 11.0%
